The text below walks through data of patent US20120201811A1 (US Dept. of Health and Human Services, published 2012).

Like-named read-outs stand apart in the source and are kept apart here.

As a reminder, the Kd is the concentration at which binding is half-saturated. A lower Kd goes with tighter binding. For orientation: koff means the first-order rate constant of dissociation. A higher koff goes with fast dissociation. By kon is commonly meant the second-order rate constant of association.

Series [1] deals with the molecule itself. The series is described as follows: sedimentation equilibrium ultracentrifugation, gradient fitted as a monomer-dimer system (self-association of the Fab/Rev complex); self-association of the 1:1 Fab/Rev complex, monomer-dimer fit of sedimentation equilibrium.
The target of series [2] is T1, HIV-1 Rev (clone BH10) (HIV-1 (isolate BH10), UniProt P04616 1-116).
T1 construct: mature; also called full-length Rev; recombinant HIV-1 Rev
T1 sequence: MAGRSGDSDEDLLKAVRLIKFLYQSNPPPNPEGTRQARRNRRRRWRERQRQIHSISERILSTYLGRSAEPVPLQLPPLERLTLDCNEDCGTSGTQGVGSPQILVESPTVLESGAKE
The series is described as follows: SPR (Biacore X), Rev immobilized on CM5 chip, Fab as analyte, Kd=kd/ka. (SPR reads the build-up and loss of mass on a sensor chip optically.)

For series [3], the target named is T1, HIV-1 Rev (clone BH10).
The target in series [4] is T1, HIV-1 Rev (clone BH10). Put plainly: SPR (Biacore X), Rev immobilized on CM5 chip, Fab as analyte, 1:1 Langmuir global fit.
The target in series [5] is T1, HIV-1 Rev (clone BH10). The series is described as follows: densitometry of Coomassie-stained SDS-PAGE of the Ni-purified complex.

B1: Fab/Rev complex (1:1 complex of Fab SJS-R1 and HIV-1 Rev) (other)
light: ELVMTQTPSSVSEPVGGTVTIKCQASQSISSWLSWYQQKPGQPPKLLIYDASNLASGVPSRFMGSGSGTEYTLTISGVQREDAATYYCLGGYPAASYRTAFGGGTELEIIRTVAAPSVFIFPPSDEQLKSGTASVVCLLNNFYPREAKVQWKVDNALQSGNSQESVTEQDSKDSTYSLSSTLTLSKADYEKHKVYACEVTHQGLSSPVTKSFNRGEC
heavy: QEQLVESGGRLVTPGTALTLTCKVSGFSLSGFWLNWVRQAPGKGLEWVGAIYRGSGSEWYASWAKGRFTISDTSTTVTLKLTSPTTEDTATYFCAADTTDNGYFTIWGPGTLVTVSSASTKGPSVFPLAPSAKSTSGGTAALGCLVKDYFPEPVTVSWNSGALTSGVHTFPAVLQSSGLYSLSSVVTVPSSSLGTQTYICNVNHKPSNTKVDKKAEPKSCDKTRGHHHHHH
chain: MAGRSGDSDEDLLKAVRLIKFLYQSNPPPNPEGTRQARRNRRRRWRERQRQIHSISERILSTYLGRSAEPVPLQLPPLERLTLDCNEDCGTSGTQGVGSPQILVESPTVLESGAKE
notes: mature; also called Fab/Rev immune complex
B1: the dissociation constant Kd in series [1] is ~100 µM.

B2: Fab SJS-R1 (chimeric rabbit/human anti-Rev Fab) (Fab, V domains shown)
VH: QEQLVESGGRLVTPGTALTLTCKVSGFSLSGFWLNWVRQAPGKGLEWVGAIYRGSGSEWYASWAKGRFTISDTSTTVTLKLTSPTTEDTATYFCAADTTDNGYFTIWGPGTLVTVSS
VL: ELVMTQTPSSVSEPVGGTVTIKCQASQSISSWLSWYQQKPGQPPKLLIYDASNLASGVPSRFMGSGSGTEYTLTISGVQREDAATYYCLGGYPAASYRTAFGGGTELEIIR
notes: also called SJS-R1 Fab; Rev Fab SJS-R1
B2: the Kd with HIV-1 Rev (clone BH10) [2] was ~0.04 nM. In the series with HIV-1 Rev (clone BH10) [3], this molecule gave a koff of 8.3e-06 s⁻¹ and an association rate constant (kon) of 228000 M⁻¹ s⁻¹. Also, in the series with HIV-1 Rev (clone BH10) [4], the off-rate (koff) came to 8e-06 s⁻¹ and the kon is 220000 M⁻¹ s⁻¹. For the same molecule, the “molar ratio in the purified complex” value in the series with HIV-1 Rev (clone BH10) [5] worked out at 0.9 mol Rev per mol Fab.

B3: scFv SJS-R1 (mature SJS-R1 scFv) (scFv)
scFv: AELVMTQTPSSVSEPVGGTVTIKCQASQSISSWLSWYQQKPGQPPKLLIYDASNLASGVPSRFMGSGSGTEYTLTISGVQREDAATYYCLGGYPAASYRTAFGGGTELEIIGGSSRSSSSGGGGSGGGGQEQLVESGGRLVTPGTALTLTCKVSGFSLSGFWLNWVRQAPGKGLEWVGAIYRGSGSEWYASWAKGRFTISDTSTTVTLKLTSPTTEDTATYFCAADTTDNGYFTIWGPGTLVTVSSHHHHHH
notes: also called anti-Rev scFv; Rev scFv
Take B3: the “molar ratio in the purified complex” value with HIV-1 Rev (clone BH10) [5] came to 0.87 mol Rev per mol scFv.
